In the Immune Epitope Database (IEDB):

What was measured:
[1] = target: HLA-B*39:01; test: IEDB peptide-MHC binding, purified MHC/competitive/fluorescence; filed as Kd, often an IC50 or EC50 that approximates it; ≥ and ≤ were set here for values at or beyond the usual limits of such assays
[2] = target: HLA-B*57:01; test: as above
[3] = target: HLA-B*27:03; test: as above
[4] = target: HLA-A*69:01; test: as above
[5] = target: HLA-A*02:01; test: as above
[6] = target: HLA-B*18:01; test: as above
[7] = target: HLA-A*02:11; test: IEDB peptide-MHC binding, purified MHC/direct/fluorescence; filed as Kd, often an IC50 or EC50 that approximates it; ≥ and ≤ were set here for values at or beyond the usual limits of such assays
[8] = target: HLA-A*02:03; test: as above
[9] = target: HLA-A*02:16; test: as above
[10] = target: HLA-A*02:12; test: as above
[11] = target: HLA-A*68:02; test: as above
[12] = target: HLA-A*02:19; test: as above
[13] = target: HLA-B*15:01; test: as above; details: source organism: Reston ebolavirus - Reston
[14] = target: HLA-A*03:01; test: as above
[15] = target: HLA-B*15:09; test: as above
[16] = target: HLA-B*44:02; test: as above; details: source organism: Vibrio vulnificus
[17] = target: HLA-B*27:05; test: as above
[18] = target: HLA-B*39:01; test: as above
[19] = target: HLA-B*07:02; test: as above; details: source organism: Vibrio vulnificus
[20] = target: HLA-B*48:01; test: as above
[21] = target: HLA-B*40:01; test: as above
[22] = target: HLA-A*31:01; test: as above
[23] = target: HLA-B*57:01; test: as above
[24] = target: HLA-A*01:01; test: as above
[25] = target: HLA-A*69:01; test: as above; details: source organism: Vibrio vulnificus
[26] = target: HLA-A*11:01; test: as above
[27] = target: HLA-B*58:01; test: as above
[28] = target: HLA-A*02:01; test: as above; details: source organism: Vibrio vulnificus
[29] = target: HLA-B*15:17; test: as above; details: source organism: Vibrio vulnificus
[30] = target: HLA-A*26:01; test: as above
[31] = target: HLA-B*46:01; test: IEDB peptide-MHC binding, purified MHC/competitive/fluorescence; filed as Kd, often an IC50 or EC50 that approximates it; ≥ and ≤ were set here for values at or beyond the usual limits of such assays
[32] = target: HLA-B*51:01; test: as above
[33] = target: HLA-B*15:01; test: as above
[34] = target: HLA-B*83:01; test: as above; details: source organism: Zaire ebolavirus
[35] = target: HLA-B*45:06; test: as above; details: source organism: Zaire ebolavirus
[36] = target: HLA-B*15:42; test: as above; details: source organism: Zaire ebolavirus
[37] = target: HLA-A*26:01; test: as above
[38] = target: HLA-A*24:03; test: IEDB peptide-MHC binding, purified MHC/direct/fluorescence; filed as Kd, often an IC50 or EC50 that approximates it; ≥ and ≤ were set here for values at or beyond the usual limits of such assays; details: source organism: Zaire ebolavirus
[39] = target: HLA-B*15:17; test: IEDB peptide-MHC binding, purified MHC/competitive/fluorescence; filed as Kd, often an IC50 or EC50 that approximates it; ≥ and ≤ were set here for values at or beyond the usual limits of such assays; details: source organism: Bacillus anthracis str. A0488
[40] = target: HLA-A*02:03; test: as above; details: source organism: Homo sapiens
[41] = target: HLA-B*08:01; test: IEDB peptide-MHC binding, purified MHC/direct/fluorescence; filed as Kd, often an IC50 or EC50 that approximates it; ≥ and ≤ were set here for values at or beyond the usual limits of such assays; details: source organism: Variola virus
[42] = target: HLA-B*46:01; test: as above; details: source organism: Cowpox virus
[43] = target: HLA-C*05:01; test: as above; details: source organism: Vaccinia virus Copenhagen
[44] = source organism: Zaire ebolavirus
[45] = source organism: Vibrio vulnificus CMCP6
[46] = source organism: Vibrio vulnificus
[47] = source organism: Bacillus anthracis str. A0488
[48] = source organism: Bacillus cereus G9842
[49] = source organism: Vaccinia virus Copenhagen

HLPGFGTAF
Kd [1, 44]: ≥ 20 µM | Kd [2, 44]: ≥ 20 µM | Kd [3, 44]: ≥ 20 µM | Kd [4, 44]: ≥ 20 µM | Kd [5, 44]: ≥ 20 µM | Kd [6, 44]: ≥ 20 µM | Kd [7, 44]: ≥ 20 µM | Kd [8, 44]: ≥ 20 µM | Kd [9, 44]: ≥ 20 µM | Kd [10, 44]: ≥ 20 µM | Kd [11, 44]: ≥ 20 µM | Kd [12, 44]: ≥ 20 µM | Kd [13]: 0.072 µM | Kd [14, 44]: ≥ 20 µM

IEFIEVVRL
Kd [15, 45]: ≥ 20 µM | Kd [16]: ≥ 20 µM | Kd [17, 46]: ≥ 20 µM | Kd [18, 45]: ≥ 20 µM | Kd [11, 46]: ≥ 20 µM | Kd [19]: ≥ 20 µM | Kd [20, 46]: ≥ 20 µM | Kd [21, 46]: 0.0377 µM | Kd [22, 46]: ≥ 20 µM | Kd [23, 46]: ≥ 20 µM | Kd [24, 46]: ≥ 20 µM | Kd [25]: ≥ 20 µM | Kd [26, 46]: ≥ 20 µM | Kd [27, 46]: ≥ 20 µM | Kd [28]: ≥ 20 µM | Kd [29]: ≥ 20 µM | Kd [30, 45]: ≥ 20 µM

LEARVNLSV
Kd [1, 44]: ≥ 20 µM | Kd [31, 44]: ≥ 20 µM | Kd [32, 44]: ≥ 20 µM | Kd [33, 44]: ≥ 20 µM | Kd [34]: ≥ 5 µM | Kd [2, 44]: ≥ 20 µM | Kd [3, 44]: ≥ 20 µM | Kd [4, 44]: ≥ 20 µM | Kd [35]: ≥ 5 µM | Kd [36]: ≥ 5 µM | Kd [5, 44]: ≥ 20 µM | Kd [37, 44]: ≥ 20 µM | Kd [6, 44]: ≥ 20 µM | Kd [8, 44]: ≥ 20 µM | Kd [10, 44]: ≥ 20 µM | Kd [11, 44]: ≥ 20 µM | Kd [12, 44]: ≥ 20 µM | Kd [38]: ≥ 20 µM | Kd ([21]; source organism: Sudan ebolavirus - Maleo (1979)): 2.34 µM | Kd [14, 44]: ≥ 20 µM

MFKNFPFFK
Kd [1, 47]: ≥ 20 µM | Kd [31, 47]: ≥ 20 µM | Kd [32, 47]: ≥ 20 µM | Kd [2, 47]: ≥ 20 µM | Kd [3, 47]: ≥ 20 µM | Kd [5, 47]: ≥ 20 µM | Kd [39]: ≥ 20 µM | Kd [37, 47]: ≥ 20 µM | Kd [6, 47]: ≥ 20 µM | Kd [7, 48]: ≥ 20 µM | Kd [8, 48]: ≥ 20 µM | Kd [9, 48]: ≥ 20 µM | Kd [10, 48]: ≥ 20 µM | Kd [12, 48]: ≥ 20 µM | Kd [26, 48]: ≤ 0.001 µM

SRAGISVVL
Kd ([1]; source organism: Serratia marcescens): 0.0047 µM | Kd ([15]; source organism: Salmonella enterica subsp. enterica serovar Typhimurium str. LT2): 0.207 µM

YQGSYGFRL
Kd [40]: 2.14 µM | Kd ([4]; source organism: Homo sapiens): ≥ 20 µM | Kd ([5]; source organism: Homo sapiens): 0.013 µM

YTDLTYQSF
Kd [33, 49]: 2.64 µM | Kd [4, 49]: ≥ 20 µM | Kd [5, 49]: ≥ 20 µM | Kd ([15]; source organism: Variola virus): ≥ 20 µM | Kd ([17]; source organism: Cowpox virus): ≥ 20 µM | Kd ([18]; source organism: Variola virus): ≥ 20 µM | Kd [41]: ≥ 20 µM | Kd [42]: ≥ 20 µM | Kd ([20]; source organism: Cowpox virus): ≥ 20 µM | Kd ([21]; source organism: Cowpox virus): ≥ 20 µM | Kd ([22]; source organism: Cowpox virus): ≥ 20 µM | Kd ([23]; source organism: Cowpox virus): 3.76 µM | Kd ([24]; source organism: Cowpox virus): 0.019 µM | Kd [43]: ≤ 0.001 µM | Kd ([26]; source organism: Cowpox virus): ≥ 20 µM | Kd ([27]; source organism: Variola virus): 0.083 µM | Kd ([30]; source organism: Variola virus): 0.233 µM | Kd ([14]; source organism: Cowpox virus): ≥ 20 µM
